Values belong to the binder of their own block, whether it stands above or below them.
Experiments:
[1] = molecular target: human CD47 ECD protein (human) (UniProt Q08722); assay: competition ELISA against human SIRPα-His (1 µg/mL) on plate-coated human CD47 ECD; ligand only 1.438
[2] = molecular target: human CD47 on engineered CHO-K1 cells (human) (UniProt Q08722); assay: competition FACS against human SIRPα-His (1 µg/mL) on CHOK1-huCD47 cells; ligand only 1086
[3] = molecular target: cynomolgus monkey CD47 on engineered CHO-K1 cells (cynomolgus monkey); assay: FACS on CHO-K1 cells expressing cynomolgus CD47 (CHOK1-cynoCD47), goat anti-human IgG-Fc PE
[4] = molecular target: human CD47 ECD protein (human) (UniProt Q08722); assay: competition ELISA: plate-coated human CD47 ECD (1 µg/mL), antibody titrated together with human SIRPα-His (1 µg/mL), bound SIRPα detected with anti-His-HRP
[5] = molecular target: human CD47 ECD protein (human) (UniProt Q08722); assay: ELISA on plate-coated human CD47 ECD (1 µg/mL), goat anti-human IgG-Fc-HRP, OD450; blank (Neg) 0.102
[6] = molecular target: human CD47 on engineered CHO-K1 cells (human) (UniProt Q08722); assay: FACS on CHO-K1 cells expressing human CD47 (CHOK1-huCD47), goat anti-human IgG-Fc PE; blank (Neg) 34.8
[7] = molecular target: human CD47 on engineered CHO-K1 cells (human) (UniProt Q08722); assay: competition FACS: CHO-K1 cells expressing human CD47, antibody titrated together with human SIRPα-His (1 µg/mL), bound SIRPα detected with anti-His-biotin and streptavidin-PE
[8] = molecular target: human CD47 on engineered CHO-K1 cells (human) (UniProt Q08722); assay: FACS on CHO-K1 cells expressing human CD47 (CHOK1-huCD47), goat anti-human IgG-Fc PE
[9] = molecular target: CD47 on human red blood cells (human) (UniProt Q08722); assay: FACS on human red blood cells, goat anti-human IgG-Fc PE
[10] = molecular target: human CD47 ECD protein (human) (UniProt Q08722); assay: ELISA on plate-coated human CD47 ECD (1 µg/mL), goat anti-human IgG-Fc-HRP, OD450
[11] = molecular target: CD47 on human red blood cells (human) (UniProt Q08722); assay: FACS on human red blood cells, goat anti-human IgG-Fc PE; blank (Neg) 232
[12] = molecular target: cynomolgus monkey CD47 on engineered CHO-K1 cells (cynomolgus monkey); assay: FACS on CHO-K1 cells expressing cynomolgus CD47 (CHOK1-cynoCD47), goat anti-human IgG-Fc PE; blank (Neg) 47.6

cynomolgus monkey CD47 on engineered CHO-K1 cells (cynomolgus monkey), sequence (chain, as listed by the source, change not shown): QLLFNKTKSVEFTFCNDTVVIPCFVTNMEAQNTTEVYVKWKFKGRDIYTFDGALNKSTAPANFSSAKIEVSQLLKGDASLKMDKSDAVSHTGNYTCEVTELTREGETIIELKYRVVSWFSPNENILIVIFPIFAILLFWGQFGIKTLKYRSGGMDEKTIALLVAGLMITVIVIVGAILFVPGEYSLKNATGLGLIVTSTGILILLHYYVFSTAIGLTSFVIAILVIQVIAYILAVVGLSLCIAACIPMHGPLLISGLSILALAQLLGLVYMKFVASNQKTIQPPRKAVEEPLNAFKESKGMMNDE

- Max Inhibit% [1]: 91.7%
- Min OD [1]: 0.12 OD450
- Max Inhibit% [2]: 71.3%
- Min MFI [2]: 312 MFI
- EC50 [3]: 0.34 nM
- IC50 [4]: 0.97 nM
- Max OD [5]: 1.92 OD450
- Max MFI [6]: 50000 MFI
- IC50 [7]: 0.51 nM
- EC50 [8]: 0.43 nM
- EC50 [9]: 0.69 nM
- EC50 [10]: 0.019 nM
- Max MFI [11]: 42800 MFI
- Max MFI [12]: 34200 MFI
B1: W345-BMK1.uIgG4PE.K (antibody, from another filing, V domains shown)
VH: QMQLVQSGAEVKKTGSSVKVSCKASGFNIKDYYLHWVRQAPGQALEWMGWIDPDQGDTEYAQKFQDRVTITRDRSMSTAYMELSSLRSEDTAMYYCNAAYGSSSYPMDYWGQGTTVTV
VL: NIQMTQSPSAMSASVGDRVTITCKASQDIHRYLSWFQQKPGKVPKHLIYRANRLVSGVPSRFSGSGSGTEFTLTISSLQPEDFATYYCLQYDEFPYTFGGGTKVEIK

- Max Inhibit% [1]: 90.5%
- Min OD [1]: 0.137 OD450
- Max Inhibit% [2]: 67.4%
- Min MFI [2]: 354 MFI
- EC50 [3]: 38.9 nM
- IC50 [4]: 2.84 nM
- Max OD [5]: 1.82 OD450
- Max MFI [6]: 55400 MFI
- IC50 [7]: 1.92 nM
- EC50 [8]: 1.22 nM
- EC50 [9]: 4.82 nM
- EC50 [10]: 0.038 nM
- Max MFI [11]: 37600 MFI
- Max MFI [12]: 30600 MFI
B2: W345-BMK4.uIgG4.SPK (antibody, from another filing, V domains shown)
VH: QVQLQESGPGLVKPSGTLSLTCAVSGVSIRSINWWNWVRQPPGKGLEWIGEIYHSGSTNYNPSLKSRVTISVDKSKNQFSLKLNSVTAADTAVYYCARDGGIAVTDYYYYGLDVWGQGTTVTVSS
VL: EIVLTQSPATLSLSPGERATLSCRASESVSSNLAWYQQKPGQAPRLLIYGAFNRATGIPARFSGSGSGTDFTLTISSLEPEDFAVYYCQQRSDWFTFGGGTKVEIK
